According to the supplement of paper PMC12764529:
± gives the half width of the 95% confidence interval.

Columns and labels:
[1] = folding stability dG unfold from trypsin proteolysis; higher = more stable
In short: (§1)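 K50 was inferred by Bayesian fitting of sequencing counts obtained after protease digestion of designed mini-proteins. Unfolding free energy was derived by comparison with a sequence-predicted unfolded-state K50 and a shared folded-state K50, for each protease or both combined. The mini-proteins were under 80 residues, had no cysteine, were carried in a PA-tagged cDNA display construct, and were kept only if AlphaFold2 dimer inter-PAE exceeded 15.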

[2] = folding stability dG unfold from chymotrypsin proteolysis; higher = more stable
In short: as §1

[3] = folding stability dG unfold (combined trypsin and chymotrypsin); higher = more stable
In short: as §1

| Sequence | folding stability dG unfold [1] [kcal/mol] | folding stability dG unfold [2] [kcal/mol] | folding stability dG unfold [3] [kcal/mol] |
| --- | --- | --- | --- |
| SAGGSAGGMDAEELAERIANHFQEHFPDMPIKVEVDPDHGWAKIEMRNPNNPGQKHEFEIPIDKSAGGSAGG [r6_478_TrROS] | 0.311 ± 0.093 | 1.29 ± 0.031 | 0.912 ± 0.1 |
| SAGGSAGGSAPETSLTSTFEFRFEVDGELYAVRIERRVLLSADGDLRVETRIEIIPIPPDVPASAGGSAGGS [r12_927_TrMRF] | 3.72 ± 0.13 | 5.1 ± 0.12 | 4.79 ± 0.11 |
| SAGGSAGGSPKIEIEQDPNGWWRVKIRPPDGKKRPINIPPGDPEKILDEAEENGWKIDEIEPWSAGGSAGGS [r12_891_TrROS] | -0.045 ± 0.2 | 0.631 ± 0.14 | 0.404 ± 0.12 |
| SAGGSAGGSAGGKTVVLFVDPKTKKVYILYPDGKIETLSPEELKNKPIIVKPVKLHPKAGSAGGSAGGSAGG [r7_98_TrMRF] | 0.817 ± 0.024 | 1.86 ± 0.053 | 1.56 ± 0.053 |
| SFFVEFGIEHNPENNYIHINFRIYEPDPNGQWRPSSSIPITIPIKIPPPPVPKIEVPEGAKDPEDAADALSA [r9_888_TrROS] | 2.92 ± 0.2 | 4.43 ± 0.3 | 3.75 ± 0.68 |
| SAGNIKIEVEELGPGWYVIKVEIPYDSPEQMLDMIKDIIRDFFGEPVKIDEVEIDPDEGWIEKTIRIPLSAG [r5_810_TrROS] | 1.58 ± 0.067 | 1.64 ± 0.07 | 1.67 ± 0.12 |
| SAGGGVMIAIKKIDPKNGKLEIEIWMPEGFEDPDQRKEMLEMADSLADRLQELHGIPVKVTIHPFPNSAGGS [r16_304_TrROS] | 2.31 ± 0.083 | 2.27 ± 0.076 | 2.31 ± 0.12 |
| SAGGSAGGSMEPIDLSIVEIKEELLPSGKKKYIVTIETPGKKVKKYTFPPDISIEDIKKLILNSAGGSAGGS [r20_115_JUSTAS] | 2.17 ± 0.11 | 2.881 ± 0.026 | 2.69 ± 0.12 |
| PAVPKEYTVTLPNATAKVTLEEYEDFVLATAEVTFPDGAKATVTVTLEPTPDGVKRTVTLNIPPGFGAKLGS [r1_153_TrMRF] | 1.17 ± 0.013 | 1.9 ± 0.03 | 1.65 ± 0.06 |
| SAGMYSETLLEEREYPDGTKEKLYRITKPGGVEELRLVREPLTFDPNNGGPGRKEEVKTAKPDEEIELESAG [r5_122_JUSTAS] | 0.721 ± 0.026 | 1.12 ± 0.14 | 1.03 ± 0.1 |
| SAGNKVEIMLMVPMKPDPDGEPEIDPQMIREIAKAAGAEGRVEDVDIQPMPDYYMIRVRLPGKEIWIMSAGG [r19_398_TrROS] | 1.46 ± 0.031 | 1.1 ± 0.13 | 1.38 ± 0.11 |
| SAGGSKIQISIWEDPENDYTWVTIWFPDDEELVDFFVEDIADLGVKKVETERFPDNGWRRITILIRSAGGSA [r2_358_TrROS] | 2.43 ± 0.063 | 3.27 ± 0.066 | 2.97 ± 0.12 |
| SAGMTAEELAAEALAKLPPGAKEVTVEIEVNGELVTVTITVEAAPPPPPPEETITTVDEDTGEVREETLSAG [r5_236_TrROS_Hall] | 1.44 ± 0.058 | 0.119 ± 0.034 | 0.854 ± 0.068 |
| SAGGSAGGMKITTPDGKEITFPPKDETVTLTITVKLEDGTTVTIEIKFNKNGEIVEIKISIEKKSAGGSAGG [r6_530_TrROS_Hall] | 1.52 ± 0.07 | 2.43 ± 0.061 | 1.99 ± 0.17 |
| SAGMIVTVLSKEVDPATGSTTTYSVSTDPETGETFLYTTTTTGDTVTTTRTVFFPGTGTTSTSTTTTSASAG [r5_150_JUSTAS] | 2.17 ± 0.056 | 3.019 ± 0.017 | 2.73 ± 0.046 |
| SAGGSAGGSAIKPGEKIKILVLVKDENGKEYLVKMEIEKLPDGKIKIKKVEIMSLEELKKLSAGGSAGGSAG [r3_212_TrROS_Hall] | 1.84 ± 0.043 | 2.38 ± 0.029 | 2.2 ± 0.13 |
| SAGGSAGGSAGGMLKITITTPGEEREFVIPTPEPEPPGEEEVAKELGLEDVEVEVEEVLESAGGSAGGSAGG [r11_219_JUSTAS] | 0.118 ± 0.04 | -0.0518 ± 0.1 | 0.0103 ± 0.12 |
| SPEAVAEALRKLGFDLDIERIDVEPLPDGTYRVTVTRGDKPVFTVTVTAPPPPPPVFVVRDADGTERLVRSA [r9_442_TrMRF] | 0.704 ± 0.054 | 2.4 ± 0.03 | 1.98 ± 0.036 |
| SAGGSASTLRLIVIPPSYPNMTIEEAIKNIKIKRPDGKEFEVEVLEVIPVKDYRLLLVRIKDPIPYSAGGSA [r15_331_TrMRF] | 2.32 ± 0.058 | 2.46 ± 0.071 | 2.43 ± 0.14 |
| SMREITVTLPSEELAEELREAAEALGVEEVEVSRLPEDRLEIRIKTNSDPESVIQALKDLAEKRGLEVAASA [r9_1003_JUSTAS] | 1.73 ± 0.074 | 1.66 ± 0.086 | 1.61 ± 0.085 |
| SAGGSAGGSAGGELELEVEVDGVLVRARVELDPETDELKIELEVRPLPPPEVVFLPEDRSAGGSAGGSAGGS [r10_582_TrROS_Hall] | 0.576 ± 0.072 | 0.504 ± 0.029 | 0.489 ± 0.1 |

| Sequence | folding stability dG unfold [1] [kcal/mol] | folding stability dG unfold [2] [kcal/mol] | folding stability dG unfold [3] [kcal/mol] |
| --- | --- | --- | --- |
| SAGGKLPKGAKIVSVEFDKETKEIRIKVEFYDKNGKLIKTIEKTIKIKPKPKLSEEEKKKLEEEKKKSAGGS [r16_697_TrROS_Hall] | 0.96 ± 0.18 | 1.46 ± 0.28 | 1.65 ± 0.23 |
| SAGPPIWIRAEIEHPRPNPDDGEPQERKREVWIRLPEDLLENGMPVEELAKELASNYPGYKVKIDEILSAGG [r19_110_TrROS] | 0.552 ± 0.026 | -0.915 ± 0.38 | 0.159 ± 0.15 |
| SAGGSAERVLIEAESLEEAKAALEELGVTRVEEREVDGKRYLILVDLDDPEKIEVFSREELEKLLKSAGGSA [r15_11_TrROS_Hall] | 0.935 ± 0.034 | 1.78 ± 0.093 | 1.55 ± 0.083 |
| SAGGSKIEVKIEEENGTLTITVTVYDENGEQIAEITVTITLPAPKPPEKELVKAESPEEKEEALKQSAGGSA [r2_332_TrROS_Hall] | 2.25 ± 0.12 | 1.8 ± 0.12 | 1.65 ± 0.35 |
| SAGGSAGGSAGGKPEIKLVEVENEDGSKLIKIEVNGKTIIIENVKTEEELRELLKKLGIESAGGSAGGSAGG [r7_91_TrROS_Hall] | 2.08 ± 0.14 | 2.66 ± 0.17 | 2.64 ± 0.25 |
| SAGGSAGGSSSVVSTLEETPDSVVEKVETPDPIIVERVPLPDGTVEVRVFKPDGTPISISTLGSAGGSAGGS [r12_1061_JUSTAS] | 0.99 ± 0.036 | 0.0395 ± 0.18 | 0.507 ± 0.12 |
| SMKVTVSVTYNPETQTLELRFTVYERDPNGNWVPTASFPITLPVTIPAPPVPVVEVPEDATLPEDVALADSA [r9_888_TrMRF] | 3.64 ± 0.18 | 5.14 ± 0.21 | 4.99 ± 0.33 |
| SAGGMGTPFTTLTVTLEFPSSESLEEAKEKAEELAEELRRAHPEVVSIEIEVSKEGDTYKVKLTVTIASSAG [r5_446_JUSTAS] | 4.37 ± 0.22 | 4.72 ± 0.11 | 4.7 ± 0.13 |
| SMEVVEEFTLPNGTRITLTKNEDGTVTVTLETTVKNPETGKTTTKTVTITVKLEPGEEYSLEELLATLLSSA [r9_614_TrROS_Hall] | 3.5 ± 0.12 | 3.77 ± 0.039 | 3.7 ± 0.078 |
| SAGMSLEELAKELAKKLNIEKVEIKYDKETNKVTIKIYFKKNKKKITITIKKENMTPEEIKKLLEEILKSAG [r5_896_TrROS_Hall] | 2.9 ± 0.12 | 4.51 ± 0.098 | 4.41 ± 0.19 |
| SAGGSAGGSAPATITSIEVEERTGPDGRTYRVLRVRLADTGEEVEIVVPGMSLEEVLAALASSAGGSAGGSA [r18_345_TrROS_Hall] | 2.86 ± 0.031 | 2.937 ± 0.019 | 2.93 ± 0.082 |
| SAGGSAGGSPDVVVTVEKNEDGEETVTVLMSREDVERLAAALPDVKVEELPDGLVLLTVRVKPSAGGSAGGS [r20_231_TrROS_Hall] | 0.51 ± 0.038 | 0.827 ± 0.07 | 0.728 ± 0.089 |
| SAGGSAGGSAGGKKPKPIKVKVLKYYKNGKIEEKEYTFESPEDLEEFIKANPEVKVLEISSAGGSAGGSAGG [r11_802_TrMRF] | 3.04 ± 0.34 | 4.76 ± 0.082 | 4.58 ± 0.17 |
| SAGATLLEERELPDGSRVEVYREPDKLIVRVFSPDREVETRVFPLPPEPPLPVVPVVVDPARGRFVRLSAGG [r19_254_JUSTAS] | -0.621 ± 0.19 | -0.00636 ± 0.11 | -0.106 ± 0.077 |
| SAGGSAGGSAGGVEELKKALEKAGFKVVKVEVTEVKNPETKETTTKITVTLEDGSKLTITSAGGSAGGSAGG [r7_337_TrROS_Hall] | 3.95 ± 0.2 | 3.63 ± 0.058 | 3.72 ± 0.11 |
| SAGGSAGGSAGGNPLKGNFFRLKLELTLKVEVKIPKKGEKKTFPIKIELELDVPPDSILSAGGSAGGSAGGS [r10_133_TrMRF] | 3.39 ± 0.26 | 3.98 ± 0.12 | 3.69 ± 0.11 |
| SAGGSAGGSAEELAKELAKKLPPGAKFKIEVKTEYYKTKDGKTVKKKVEIKIYNEDGEEVTSAGGSAGGSAG [r3_247_TrROS_Hall] | -0.0104 ± 0.19 | 1.1 ± 0.51 | 0.679 ± 0.32 |
| SAGGMPKVPVTYTVTFTLKPDGSTLTVTETFPVPEPGKPVTKEEIKQRLLDKLPPSYTITSITITRASAGGS [r16_407_JUSTAS] | 1.86 ± 0.03 | 2.21 ± 0.026 | 2.13 ± 0.051 |
| SAGGSAGGYIVKIKMPKFPHVFIFPPEMPPKQFADEIRRRFGNPDAPITDITIQPVTPEELKKLSAGGSAGG [r6_122_TrROS] | 0.787 ± 0.059 | 1.4 ± 0.12 | 1.16 ± 0.12 |
| SAGGSAGGWYVRITTNNGNQISIHLEELGLPEESFKEMTEEDLAEYLSKLFPGRPIKIEPVPLPSAGGSAGG [r6_165_TrROS] | 3.07 ± 0.14 | 3.35 ± 0.11 | 3.14 ± 0.14 |
| SAGMVITLERTIPPTVSVSPEEAVAAIKAELEATPGVTVTAVNSVTVTPLPDGTLRVTVDIVVDRPEPSAGG [r19_396_JUSTAS] | 2.23 ± 0.037 | 2.634 ± 0.024 | 2.53 ± 0.06 |
